Measured values from the nanobody polyreactivity screen of Harvey et al. (2022).

assay: yeast display, Sf9 membrane polyspecificity reagent, FACS + sequencing; frameworks hold sequencing errors
Method in brief: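 Galactose induction of a Saccharomyces cerevisiae BJ5465 synthetic nanobody display library ran 36–48 hours. The cells were then stained for 1 hour at 4 °C with 10% biotinylated, detergent-solubilized Sf9 membrane reagent, pulled down on streptavidin microbeads and FACS-sorted into low and high (top ~1%) gates on expression and reagent-binding fluorescence. Labels for polyreactivity follow the gate of origin.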

| Sequence | polyreactivity (PSR sort gate) |
| --- | --- |
| QVQLVESGGGLVQAGGSLRLSCAASGSTFGVNAMGWYRQAPGKERELVAAISSSGSSTYADSVKGRFTISRDYAKNTVYLQMNSLKPEYTGVYYCNKTTLLTVEYDYWGQGPQVTVSS | low polyreactivity |
| QVQLVESGGGLVQAGGSLRLSCAASGSIFLYNAMGWYRQAPGKERELVAAISAIGSNTYYADSVKGRFTISRDNAKNTVYLQMNSLKPEDTAVYYCAAESVNVVNFGTRVGYWGQGTQVTVSS | high polyreactivity |
| QVQLVESGVGLVQAGGSLRLSCAASGLILRKYAKGWYSQAPGKEREFVAAITQTGSRTYYADSVKGRFTISRDNAKNTVYLQMNSLKPEDTAVYYCNAVNYRSSRDSGYWGQGTQVTVSS | high polyreactivity |
| QVQLVESGGGLVQAGGSLRLSCAASGITFGNYAMGWYRQAPGKDRELVAAITGSGGRTYYADSVKGRFTISRDNAKNTVYLQMNSLKPEDTAVYYCNRRQYGRKKQYDYWGQGTQVTVSS | low polyreactivity |
| QVQLVESGGGLVQAGGSLRLSCAASGFTFPLYAMGWYRQAPGKERELVASISSRGGSTYYADSVKGRFTISRDNAKNTVYLQMNSLKPEDTAVYYCARSTSRYYYWGQGTQVTVSS | high polyreactivity |
| QVQLVESGGGLVQAGGSLRLSCAASGRTFYYYAMGWYRQAPGKERELVAAINWSSGSTYYADSVKGRFTISRDNAKNTVYLQMNSLKPEDTAVYYCNAESRWYIIPYGDFDYWGQGTQVTVSS | low polyreactivity |
| QVQLVESGGGLVQAGGSLRLSCAASGSISFLYTMGWYRQAPGKERELVAAITGSTASTYYADSVKGRFTISRDNAKNTVYLQMNSLKPEDTAVYYCAAYWYAEGYWVSRDYWGQGTQVTVSS | low polyreactivity |
| QVQLVESGGGLVQAGGSLRLSCAASGRTFQSYAMGRYRQGPGKEREFVAVISRSGGDTYYADSVKGRFTISRDNAKNTVYLLMNSLKPEDTAVYYCARGYTWFYADCPEYDYWGQGTQVTVSS | high polyreactivity |
| QVQLVESGGGLVQAGGSLRLSCAASGSIIQGYVMGWYRQAPGKERELDAAISNSGSSTYYADSVKGRFTISRDNAKNTVYLQMNSLKPEDTAVYYCAVLRSYRGSKYGYWGQGTQVTVSS | high polyreactivity |
| QVQLVESGGGLVQAGGSLRLSCAASGSIFATNSMGWYRQAPGKERELVAAISRSGASTYYADSVKGRFTISRDNAKNTVYLQMNSLKPEDTAVYYCNKVLYRDAYHSYCFDYWGQGTQVTVSS | high polyreactivity |
| QVQLVESGGGLVQAGGSLRLSCAASGSTFTYNAMGWYRQAPGKERELVASISSGTTTYYADSVKGRFTISRDNAKNTVYLQMNSLKPDDTAVYYCNADIYTWFQIGGYQYDYWGQGTQVTVSS | low polyreactivity |
| QVQLVEAGGGLVQAGGSLRLSCAASGSIFSHNAMGWYRQAPGKERELVAAISVSGGTTYYADSVKGRFTISRDNAKNTVYLQMNSLKPEDTAVYYCAAKRFQGVGYLGQGTQVTVSS | high polyreactivity |
| QVQLVESGGGLVQAGGSLRLSCAASGITFGRYAMGWYRQAPGKERELVAAISSRTGRTYYADSVKGRFTISRDNAKNTVYLQMNSLKPEDTAVYYCARDSKLSASYDRDDSWGQGTQVTVSS | high polyreactivity |
| QLQLVESGGGLVPAGGSLRLSCASSGSIFKTYAMGWSRQAPGKDRELVAAIRGSGGSTYYADSVKGRFTIARDYAKNTVYLQMKSLKPEDTAFYYCARVGTKYRTNFFNGNDDWGQGTQVTVSS | low polyreactivity |
| QVQLVESGGGLVQAGGSLRLSCAASGSTFIIYAMGWYRQEPGKEREFVATITGRGGRTYYAVSVKGRFTISRDNAKNTVYLQMNSLKPEDTAVYYCAKGLGSGQEIYGYDYGGQGTQVTVSS | high polyreactivity |
| QVQLVESGGGLVQAGGSLRLSCAASGRTSIGYARGWYRQAPGKERELVAVISIGGTTYYADSVKGRFTISRDNAKNTVYLQMNSLKPEDTAVYYCAADSFPAYLGFVGFDYWGQGTQVTVSS | low polyreactivity |
| QVQLEESGGGIVQAGGSLRLSCAASGRIFPYYAMGWYRQAPGKERALVAVISYSSGITYADSVKGRFTISRDNAKNTVYLQMNSLKPEDTAVYYCAADKWAFGATQYDYWGKGTQVTVSS | low polyreactivity |
| QVQLVESAGGLVQAGGSLRLSCAASGRIFGQYTMGWYRQAPGKERELDAAISSSGGRTYYADSVKGRFTISRDNAKNTVYLQMNSLKPEDTAVYYCAARDRPSPYYYWGQGTQVTVSS | high polyreactivity |
| QVQLVESGGGLVQAGGSLRLSCAASGRIFLRNAMGWYRQAPGKERELVATITSRGGSTYYADSVKGRFTISRDNAKNTVYLQMNSLKQEDTAVYYCAADPRRYRGFGYVYGGFYYWGQGTQVTVSS | low polyreactivity |
| QVQLVESAGGLVQAGGSLRLSGSASGIIIASNGMGWYRQPPGKERELVAAISSGGSTNYADSVKGRFTISRDNAKNTVYLQMNSLKPEDTAVYYCADDRWYREYDYWGQGTQVTVSS | low polyreactivity |
| QVQLVESGGGLVQAGGSLRLSCAASGRISNDYAMGWYRQAPGKVRELVATITFSGGDTYYADSVKGRFTISRDNAKNTVYLQMNSLKPEDTSVYYCAASKWRSYSGGWWRLLFDYWGQGTQVTVSS | low polyreactivity |
| QVQLVESGGGLVQAGGSLRLSCAASGLIFYPYAMGWYRQAPGKERELVAAITSDGSTYYADSVKGRFTISRDNAKNTVYLQMNSLKPEDTAVYYCAVVVAYFDDDYGLSWFYEYDYWGQGTQVTVSS | low polyreactivity |

| Sequence | polyreactivity (PSR sort gate) |
| --- | --- |
| QVQHVESGGGLVQAGGSLRLSCAASGSTFDGYAMGWYRQAPGKERELVAAISRSGGRTYYADSVKGRFTISRDNAKNTVYLQMTSLKPEDTAVYYCAALYPYKREDYWGQGTQVTVSS | high polyreactivity |
| QVQLVESGGGFVQAGGSLRLSCAASGFSFGYSAMGWYRQAPGKERELVAAINNADSTYYADSVKGRFPISRDNAKNTVYLQMNSLKPEDTAVYYCAAVVDYGWWLAYDYWGQGTQVTVSS | high polyreactivity |
| QVQLEESGRGLVPAGGSLRLSCAASGFTFDYNTMGWYRQAPGKERELVAAISFRGTSTYYADSVKGRFTISRDNAKNTVYLQMNSLKREDTAVYYCATRDYHVPGRFYYWGQGTQVTVSS | high polyreactivity |
| QDQLVESGGGLVQAGGSLRLTCAASGFTFRRNAMGWYRQAPGKERELVAAISSRGGSTYYADSVKGRFTISRDNAKNTVYLQMNSLKPEDTAVYYCAAYYVPWGTLYHLDYWGQGTQVTVSS | high polyreactivity |
| QVQLVESGGGLVQAGGSLRLTCAASGSTFYFNAIGWYRQAPGKESELVAAISGGGRTNYADSVKGRFTISRDNAKNTVYLQMNSLKPEDTAVYYCAARNRGLRLSNYFGGNYNRDYWGQGTQVTVSS | low polyreactivity |
| QFQLEESGRGLVQAGGSLRLSCAASGRIFRYYAMGWYRQAPGKERELVAGISWRGSSTYYADSVKGRFTISRDNAKNTVYLQMNSLKPEDTAVYYCAARKASGRFGYWGQGTQVTVSS | high polyreactivity |
| QVQLVESGGGLVQAGGSLRLSCAASGIIFKGYDMGWYRQAPGKERELVAAISSGSTNYADSVKGRFTISRDNAKNTVYLQMNSLKPEDTAVYYCNKDSISYTWGYDYWGQGTQVTVSS | low polyreactivity |
| QDQLEESGGGLVQAGGSLRLSCAASGSTFSYYTMGWYRQGPGKETELVAAISSGGSTYADSVKGRFTISRDNAKYTVYLQKNSLKPEDTAVYYCAVVGFDYGPSQALDDWGQGTQVTVSS | low polyreactivity |
| QVQLVESGGGLVQAGGSLRLSCAASGSIFSWNAMGWYRQAPGKERELVAAITGGGSTYYADSVKGRFTISRDNAKNTFYLQMNSLKPEDTAVYYCNALWYWDKLEYWGQGTQVTVSS | high polyreactivity |
| QVQLVESGGGLVQAGGSLRLSCAASGSIFRRNAMGWYRQAPGKERELVAAISSIGSSTYYADSVKGRFTISRDNAKNTVYLQMNSLKPEDTAVYYCAALYVQGTHTYGYWGQGTQVTVSS | high polyreactivity |
| QVQLVESGGGLVQAGGSLRLSCAASGGTFNSNAMGWYRQAPGKERELVASITWRGGTYYADSVKGRFTISRDNAKNTVYLQMNSLKPEDTAVYYCAARGTIPGIHWIYYYWGQGTQVTVSS | high polyreactivity |
| QVQLEESGGGLVQAGGSLRLTCAASGRIFYRYAMGWYRQAPGKEREFVAAISGTGGSTYYADSVKGRFTISRDNAKNTVNLQMNSLKPEDTAVYYCAAVSYYSSGYDYWGQGTQVTVSS | high polyreactivity |
| QVQIVESGGGLVQAGGSLRLSCAASGSIFKIYEMGWYRLAPGKEREMVASMTCSGGSTYYADSVKGRFTISRDNAKNTVYLQRNSLKPEDTAGYYCAAAVLGSSKSEVDPDRPEYYYWGQGTQVTVSS | low polyreactivity |
| QVQLVESGGGLVQAGGSLRLSCAASGSTFDPNAMGWYRQAPAKERELVAAISYTGGRTYYADSVKGRFTISRDNAKNTVYLQMNSLKPEDTAVYYCAVLVVGSTTQDEPYFSGVEHDYWGQGTQVTVSS | low polyreactivity |
| QVQLVETGGGLVQAGGSRRLICAATGRIFYWYAMGCYRQAPGKERELVATISSAGTTYYADSVKGRFTISRDNAKNTVYLQMNSLKQEDTAVYYCAVPRVGLHGIGSDYWGQGTQVTVSS | high polyreactivity |
| QVQLVESGGGLVQAGGSLRLSCAASGRTFSYNTMGWYRQAPGKERELVAAIDSDGSTNYADSVKGRFTISRDNAKNTVYLQMNSLKPEDTAVYYCAADRFQCGFWWLEYWGQGTQVTVSS | high polyreactivity |
| QVQLVESGGGLVQAGGSLRLSCAASGYTFRANGMGWYRQAPGKERELVAAITQSVDNTYYADSVKGRFTISRDNAKNTVYLQVNSLKPEDTAVYYCATEYGQTGYPQMGYWGQGTQVTVSS | low polyreactivity |
| QVQLVESGGGLVQAGGSLRLSCAASGFTFRRNAMRWYRQAPGKEWELVAAINFRDGSTYYADSLKGRFTISRDNAMIHVYLQMHSLKPEDSAVYYRAAVYYVRDRYDYWGQGTQETVSS | high polyreactivity |
| QVQLVESGGGLVQAGGSLRLSCAASGSIFGRNAMGWYRQAPGKERELVAAIRTRGGSTYYADSVKGRFTNSRDIAKNSVYLQMNSLKPEDTAVYYCAAPGGGKEVDYWGQGTQVTVSS | low polyreactivity |
| QVQLVESGGGIVQAAGSLRLSCAASGFTIYYYAMVWYRQAPGKERELVASITSGGSTYYADSVKGRFTISRDNAKNTVYLQMNSLKPEDTAVYYCAITRFHSKEGVYWGQGTQVTVSS | low polyreactivity |
| QVQLVESGGGLVQAGGSLRLSCAASGRTFYSYAMGWYRQAPGKERELVAAINSGGDTYYADSVKGRFTISRDNAKNTVYLQMNSLKPEDTAVYYCAADYYWEMDTWGQGTQVTVSS | low polyreactivity |
